Patent publication US20250136694A1 (HARBOUR BIOMED SHANGHAI, published 2025)
Numbering of substitutions follows the chain as printed. In names and notes the source's numbering stands. Each block holds one binder with its values, some of them ahead of it.

Tests used:
[1] = biological target: T1, mouse B7-H4 on the cell surface (mouse, UniProt Q7TSP5 25-257); assay: FACS on CHO-K1/mB7-H4 cells
T1 construct: whole, on cells; also called m B7-H4; CHO-K1/mB7-H4
T1 sequence (looked up): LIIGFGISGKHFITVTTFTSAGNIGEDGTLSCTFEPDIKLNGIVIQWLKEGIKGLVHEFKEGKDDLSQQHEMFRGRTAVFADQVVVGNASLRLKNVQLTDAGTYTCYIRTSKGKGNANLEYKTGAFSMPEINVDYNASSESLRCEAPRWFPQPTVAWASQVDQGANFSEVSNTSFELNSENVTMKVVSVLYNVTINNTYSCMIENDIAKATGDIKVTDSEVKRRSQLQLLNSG

[2] = biological target: T2, human B7-H4 (protein in solution, BLI) (human, UniProt Q7Z7D3 25-258, limits assumed); assay: BLI (Octet), antibody captured on AHC sensor, antigen in solution
T2 sequence (looked up): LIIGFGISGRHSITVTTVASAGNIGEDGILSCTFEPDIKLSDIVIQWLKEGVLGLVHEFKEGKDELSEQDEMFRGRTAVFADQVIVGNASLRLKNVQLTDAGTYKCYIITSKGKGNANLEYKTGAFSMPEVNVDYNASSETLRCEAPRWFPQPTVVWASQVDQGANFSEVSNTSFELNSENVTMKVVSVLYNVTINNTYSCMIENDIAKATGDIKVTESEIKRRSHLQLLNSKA
Experimental: The binding kinetics between the antigen and the antibody was analyzed by the biolayer interferometry (BLI) technique using an Octet Red 96e molecular interaction analyzer (Fortebio).
When the affinity of the antigen for the antibody was determined, the rotation speed of the sensor was set at 1000 rpm/min. […] Finally, the AHC sensor was immersed in a 10 mM glycine-hydrochloric acid solution at pH 1.5 for regeneration to elute the proteins bound to the sensor.
When data analysis was performed using Octet Data Analysis software (Fortebio, version 11.0), 0 nM was taken as a reference well, and reference subtraction was performed; the “1:1 Global fitting” method was selected to fit the data, and the kinetics parameters of the binding of antigens to antigen-binding proteins were calculated, with kₒₙ(1/Ms) values, kdis(1/s) values, and KD(M) values obtained (see Table 3 and FIG. 2).

[3] = biological target: T3, human B7-H4 on the cell surface (human, UniProt Q7Z7D3 25-282); assay: FACS, MDA-MB-468 cells
T3 construct: whole, on cells; also called hu B7-H4; CHO-K1/huB7-H4
T3 sequence (looked up): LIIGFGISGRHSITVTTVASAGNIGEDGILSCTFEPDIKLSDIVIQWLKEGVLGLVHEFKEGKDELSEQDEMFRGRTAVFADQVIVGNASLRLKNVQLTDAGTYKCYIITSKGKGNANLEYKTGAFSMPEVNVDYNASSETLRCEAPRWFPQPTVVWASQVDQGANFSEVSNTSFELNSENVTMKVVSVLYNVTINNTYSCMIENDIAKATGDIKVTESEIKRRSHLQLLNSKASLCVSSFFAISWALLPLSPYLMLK
Experimental: (§1) Briefly, cells were digested and resuspended in PBS containing 2% FBS, and the cell density was adjusted to 1×10⁶ cells/mL. The cells were seeded in a 96-well V-bottom plate (Corning, Cat #3894) at 100 μL/well, followed by the addition of test antibodies 3-fold serially diluted at a concentration that was 2 times the final concentration, each at 100 μL/well. The cells were incubated away from light at 4° C. for 2 h. Then, the cells in each well were rinsed twice with 100 μL of pre-cooled PBS and centrifuged at 500 g at 4° C. for 5 min, and then the supernatant was discarded. […] The cells in each well were then rinsed twice with 100 μL of pre-cooled PBS and centrifuged at 500 g at 4° C. for 5 min, and then the supernatant was discarded. Finally, the cells in each well were resuspended in 200 μL of pre-cooled PBS, and the fluorescence signal values were read using ACEA Novocyte3000.

[4] = biological target: T3, human B7-H4 on the cell surface; assay: FACS, CHO-K1/hu B7-H4 cells
Experimental: as §1

[5] = biological target: T3, human B7-H4 on the cell surface; assay: FACS, CHO-K1/hu B7-H4 cells; remark: listed apart in the source
Experimental: as §1

[6] = biological target: T4, cynomolgus monkey B7-H4 on the cell surface (cynomolgus monkey, UniProt A0A2K5U6P5 25-282); assay: FACS, CHO-K1/cyno B7-H4 cells
T4 construct: whole, on cells; also called cyno B7-H4; CHO-K1/cynoB7-H4
T4 sequence: T3 sequence (looked up) with L53I, F242L, S252A
Experimental: as §1

[7] = biological target: T1, mouse B7-H4 on the cell surface; assay: FACS, CHO-K1/m B7-H4 cells
Experimental: as §1

B1: PR006004 (antibody, V domains shown)
VH: EVQLVESGGGLVQPGGSLRLSCAASGFAFSNYWMHWARQVPGKGRVWISRISGDGRSTSYADSVKGRFTISRDNAKNMVYLQMNNLRAEDTAVYYCARDRFGDDYYYGMNVWGQGTTVTVSS
notes: also called R7004M1A2; anti-human B7-H4 HCAb monoclonal antibody
- binding result [1]: no binding (tested: 100 nM)
- Kd [2]: 1.89 nM
- koff [2]: 0.000396 s⁻¹
- kon [2]: 210000 M⁻¹ s⁻¹
- EC50 [3]: 5.19 nM
- Maximum MFI [3]: 183000 MFI
- EC50 [4]: 4.86 nM
- EC50 [5]: 2.75 nM
- Maximum MFI [5]: 1.63e+06 MFI
- EC50 [6]: 1.65 nM
- Maximum MFI [6]: 1.57e+06 MFI

B2: PR007195 (antibody, IgG1, V domains shown)
VH: B1 VH with V46E, G55S, R56D, A61E
notes: also called charge variant of PR006004 (V46E, G55S, R56D, A61E)
- EC50 [5]: 5.65 nM
- Maximum MFI [5]: 1.58e+06 MFI

B4: PR007196 (antibody, IgG1, V domains shown)
VH: B1 VH with V46E, G55S, R56E
notes: also called charge variant of PR006004 (V46E, G55S, R56E)
- EC50 [5]: 3.72 nM
- Maximum MFI [5]: 971000 MFI

B6: PR007201 (antibody, IgG1, V domains shown)
VH: B1 VH with V46E, G55S, R56S, A61E
notes: also called charge variant of PR006004 (V46E, G55S, R56S, A61E)
- EC50 [5]: 5.5 nM
- Maximum MFI [5]: 1.46e+06 MFI

B8: PR007200 (antibody, IgG1, V domains shown)
VH: B1 VH with V46E, G55S, R56S
notes: also called charge variant of PR006004 (V46E, G55S, R56S)
- EC50 [5]: 5.39 nM
- Maximum MFI [5]: 1.48e+06 MFI

B9: PR006008 (antibody, IgG1, V domains shown)
VH: EVQLVESGGGLVQPGGSLRLSCAASGFTFTDFWMHWVRQVPGKGREWVSRISPDGSSTSYEDSVKGRFTISRDNAKNTVYLQMHGLRAEDTAVYYCTRFSTGWHRIEYFQHWGQGTLVTVSS
notes: also called R7004M6D4; anti-human B7-H4 HCAb monoclonal antibody
- EC50 [7]: 0.403 nM
- Kd [2]: 3.65 nM
- koff [2]: 0.00114 s⁻¹
- kon [2]: 312000 M⁻¹ s⁻¹
- EC50 [3]: 0.162 nM
- Maximum MFI [3]: 149000 MFI
- EC50 [4]: 1.07 nM
- EC50 [6]: 0.432 nM
- Maximum MFI [6]: 1.25e+06 MFI

Next, values leading:

- EC50 [5]: 5.58 nM
- Maximum MFI [5]: 1.51e+06 MFI
B3: PR007202 (antibody, IgG1, V domains shown)
VH: B1 VH with V46E, G55S, R56T
notes: also called charge variant of PR006004 (V46E, G55S, R56T)

- binding result [1]: no binding (tested: 100 nM)
- EC50 [3]: 9.18 nM
- Maximum MFI [3]: 185000 MFI
- EC50 [6]: 3.06 nM
- Maximum MFI [6]: 1.59e+06 MFI
B5: PR007440 (antibody, IgG1, V domains shown)
VH: B1 VH with G55S
notes: also called PTM variant (G55S) of PR006004

- EC50 [5]: 5.41 nM
- Maximum MFI [5]: 1.53e+06 MFI
B7: PR007203 (antibody, IgG1, V domains shown)
VH: B1 VH with V46E, G55S, R56T, A61E
notes: also called charge variant of PR006004 (V46E, G55S, R56T, A61E)

- EC50 [7]: 0.617 nM
- EC50 [3]: 0.244 nM
- Maximum MFI [3]: 148000 MFI
- EC50 [6]: 0.721 nM
- Maximum MFI [6]: 1.26e+06 MFI
B10: PR007441 (antibody, IgG1, V domains shown)
VH: B9 VH with G55S
notes: also called PTM variant (G55S) of PR006008
